The numbers were not newly measured in article PMC11901361, which cites them from elsewhere.

This data set addresses folate receptor alpha (Homo sapiens) (UniProt P15328).

Chain of folate receptor alpha (Homo sapiens) (P15328 25-234): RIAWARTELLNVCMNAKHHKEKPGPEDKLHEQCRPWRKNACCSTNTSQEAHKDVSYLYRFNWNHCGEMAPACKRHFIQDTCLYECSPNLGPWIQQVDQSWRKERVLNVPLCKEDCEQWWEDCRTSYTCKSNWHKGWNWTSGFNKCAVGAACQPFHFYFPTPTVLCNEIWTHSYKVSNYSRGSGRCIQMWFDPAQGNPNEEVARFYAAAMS

By Kd is commonly meant the concentration at which binding is half-saturated. With farletuzumab, the Kd was 2000 nM.
